In patent US20160272683A1 (Novo Nordisk, published 2016):
Numbered stars: 1 amine (or outer) side, 2 acyl side, 3 side chain; on linkers, the order of the positions; unused ones are H or OH. * marks the point of attachment. C20 diacid = O=C(O)CCCCCCCCCCCCCCCCCCC(=O)*; C18 diacid = O=C(O)CCCCCCCCCCCCCCCCC(=O)*; γGlu = O=C(O)[C@H](CCC(=O)[*:2])N[*:1]

T1: human amylin receptor (human calcitonin receptor + human RAMP3) (human) (UniProt P30988)
T1 sequence (looked up) 1: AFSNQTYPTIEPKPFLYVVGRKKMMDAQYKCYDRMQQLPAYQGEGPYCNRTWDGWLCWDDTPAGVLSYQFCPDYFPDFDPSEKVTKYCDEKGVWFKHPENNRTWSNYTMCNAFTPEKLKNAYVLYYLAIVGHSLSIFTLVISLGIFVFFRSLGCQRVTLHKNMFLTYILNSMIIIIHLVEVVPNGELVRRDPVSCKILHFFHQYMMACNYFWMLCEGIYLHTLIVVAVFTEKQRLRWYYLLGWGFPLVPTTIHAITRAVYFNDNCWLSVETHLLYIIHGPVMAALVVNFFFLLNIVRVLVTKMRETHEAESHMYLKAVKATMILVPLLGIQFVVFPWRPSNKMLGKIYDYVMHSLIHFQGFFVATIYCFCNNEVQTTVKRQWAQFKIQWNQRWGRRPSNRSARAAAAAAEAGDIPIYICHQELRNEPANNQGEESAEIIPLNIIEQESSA
T1 sequence (looked up) 2: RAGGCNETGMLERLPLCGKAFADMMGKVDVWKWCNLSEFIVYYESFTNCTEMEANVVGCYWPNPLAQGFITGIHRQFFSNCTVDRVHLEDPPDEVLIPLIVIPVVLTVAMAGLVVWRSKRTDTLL

B1: [N-terminal(C20 diacid-gGlu), des1, 30S, 31G, 33G]mimylin (peptide)
peptide: {C20 diacid-γGlu}-ASELSTAALGRLSAELHELATLPRTETGSGSG-NH2
SMILES: CC(C)C[C@H](NC(=O)[C@H](C)NC(=O)[C@H](C)NC(=O)[C@@H](NC(=O)[C@H](CO)NC(=O)[C@H](CC(C)C)NC(=O)[C@H](CCC(=O)O)NC(=O)[C@H](CO)NC(=O)[C@H](C)NC(=O)CC[C@H](NC(=O)CCCCCCCCCCCCCCCCCCC(=O)O)C(=O)O)[C@@H](C)O)C(=O)NCC(=O)N[C@@H](CCCNC(=N)N)C(=O)N[C@@H](CC(C)C)C(=O)N[C@@H](CO)C(=O)N[C@@H](C)C(=O)N[C@@H](CCC(=O)O)C(=O)N[C@@H](CC(C)C)C(=O)N[C@@H](Cc1c[nH]cn1)C(=O)N[C@@H](CCC(=O)O)C(=O)N[C@@H](CC(C)C)C(=O)N[C@@H](C)C(=O)N[C@H](C(=O)N[C@@H](CC(C)C)C(=O)N1CCC[C@H]1C(=O)N[C@@H](CCCNC(=N)N)C(=O)N[C@H](C(=O)N[C@@H](CCC(=O)O)C(=O)N[C@H](C(=O)NCC(=O)N[C@@H](CO)C(=O)NCC(=O)N[C@@H](CO)C(=O)NCC(N)=O)[C@@H](C)O)[C@@H](C)O)[C@@H](C)O
B2: [N-terminal(C20 diacid-gGlu), des1, 30S, 31G, 33A]mimylin (peptide)
peptide: {C20 diacid-γGlu}-ASELSTAALGRLSAELHELATLPRTETGSGSA-NH2
SMILES: CC(C)C[C@H](NC(=O)[C@H](C)NC(=O)[C@H](C)NC(=O)[C@@H](NC(=O)[C@H](CO)NC(=O)[C@H](CC(C)C)NC(=O)[C@H](CCC(=O)O)NC(=O)[C@H](CO)NC(=O)[C@H](C)NC(=O)CC[C@H](NC(=O)CCCCCCCCCCCCCCCCCCC(=O)O)C(=O)O)[C@@H](C)O)C(=O)NCC(=O)N[C@@H](CCCNC(=N)N)C(=O)N[C@@H](CC(C)C)C(=O)N[C@@H](CO)C(=O)N[C@@H](C)C(=O)N[C@@H](CCC(=O)O)C(=O)N[C@@H](CC(C)C)C(=O)N[C@@H](Cc1c[nH]cn1)C(=O)N[C@@H](CCC(=O)O)C(=O)N[C@@H](CC(C)C)C(=O)N[C@@H](C)C(=O)N[C@H](C(=O)N[C@@H](CC(C)C)C(=O)N1CCC[C@H]1C(=O)N[C@@H](CCCNC(=N)N)C(=O)N[C@H](C(=O)N[C@@H](CCC(=O)O)C(=O)N[C@H](C(=O)NCC(=O)N[C@@H](CO)C(=O)NCC(=O)N[C@@H](CO)C(=O)N[C@@H](C)C(N)=O)[C@@H](C)O)[C@@H](C)O)[C@@H](C)O
B3: [N-terminal(C20 diacid-gGlu), des1, 25H, 30S, 31G]mimylin (peptide)
peptide: {C20 diacid-γGlu}-ASELSTAALGRLSAELHELATLPHTETGSGSP-NH2
SMILES: CC(C)C[C@H](NC(=O)[C@H](C)NC(=O)[C@H](C)NC(=O)[C@@H](NC(=O)[C@H](CO)NC(=O)[C@H](CC(C)C)NC(=O)[C@H](CCC(=O)O)NC(=O)[C@H](CO)NC(=O)[C@H](C)NC(=O)CC[C@H](NC(=O)CCCCCCCCCCCCCCCCCCC(=O)O)C(=O)O)[C@@H](C)O)C(=O)NCC(=O)N[C@@H](CCCNC(=N)N)C(=O)N[C@@H](CC(C)C)C(=O)N[C@@H](CO)C(=O)N[C@@H](C)C(=O)N[C@@H](CCC(=O)O)C(=O)N[C@@H](CC(C)C)C(=O)N[C@@H](Cc1c[nH]cn1)C(=O)N[C@@H](CCC(=O)O)C(=O)N[C@@H](CC(C)C)C(=O)N[C@@H](C)C(=O)N[C@H](C(=O)N[C@@H](CC(C)C)C(=O)N1CCC[C@H]1C(=O)N[C@@H](Cc1c[nH]cn1)C(=O)N[C@H](C(=O)N[C@@H](CCC(=O)O)C(=O)N[C@H](C(=O)NCC(=O)N[C@@H](CO)C(=O)NCC(=O)N[C@@H](CO)C(=O)N1CCC[C@H]1C(N)=O)[C@@H](C)O)[C@@H](C)O)[C@@H](C)O
B4: [N-terminal(C20 diacid-gGlu), des1, 30T, 31G, 32T]mimylin (peptide)
peptide: {C20 diacid-γGlu}-ASELSTAALGRLSAELHELATLPRTETGTGTP-NH2
SMILES: CC(C)C[C@H](NC(=O)[C@H](C)NC(=O)[C@H](C)NC(=O)[C@@H](NC(=O)[C@H](CO)NC(=O)[C@H](CC(C)C)NC(=O)[C@H](CCC(=O)O)NC(=O)[C@H](CO)NC(=O)[C@H](C)NC(=O)CC[C@H](NC(=O)CCCCCCCCCCCCCCCCCCC(=O)O)C(=O)O)[C@@H](C)O)C(=O)NCC(=O)N[C@@H](CCCNC(=N)N)C(=O)N[C@@H](CC(C)C)C(=O)N[C@@H](CO)C(=O)N[C@@H](C)C(=O)N[C@@H](CCC(=O)O)C(=O)N[C@@H](CC(C)C)C(=O)N[C@@H](Cc1c[nH]cn1)C(=O)N[C@@H](CCC(=O)O)C(=O)N[C@@H](CC(C)C)C(=O)N[C@@H](C)C(=O)N[C@H](C(=O)N[C@@H](CC(C)C)C(=O)N1CCC[C@H]1C(=O)N[C@@H](CCCNC(=N)N)C(=O)N[C@H](C(=O)N[C@@H](CCC(=O)O)C(=O)N[C@H](C(=O)NCC(=O)N[C@H](C(=O)NCC(=O)N[C@H](C(=O)N1CCC[C@H]1C(N)=O)[C@@H](C)O)[C@@H](C)O)[C@@H](C)O)[C@@H](C)O)[C@@H](C)O
B5: [N-terminal(C18 diacid-gGlu), des1, 30S, 31G, 32P]mimylin (peptide)
peptide: {C18 diacid-γGlu}-ASELSTAALGRLSAELHELATLPRTETGSGPP-NH2
SMILES: CC(C)C[C@H](NC(=O)[C@H](C)NC(=O)[C@H](C)NC(=O)[C@@H](NC(=O)[C@H](CO)NC(=O)[C@H](CC(C)C)NC(=O)[C@H](CCC(=O)O)NC(=O)[C@H](CO)NC(=O)[C@H](C)NC(=O)CC[C@H](NC(=O)CCCCCCCCCCCCCCCCC(=O)O)C(=O)O)[C@@H](C)O)C(=O)NCC(=O)N[C@@H](CCCNC(=N)N)C(=O)N[C@@H](CC(C)C)C(=O)N[C@@H](CO)C(=O)N[C@@H](C)C(=O)N[C@@H](CCC(=O)O)C(=O)N[C@@H](CC(C)C)C(=O)N[C@@H](Cc1c[nH]cn1)C(=O)N[C@@H](CCC(=O)O)C(=O)N[C@@H](CC(C)C)C(=O)N[C@@H](C)C(=O)N[C@H](C(=O)N[C@@H](CC(C)C)C(=O)N1CCC[C@H]1C(=O)N[C@@H](CCCNC(=N)N)C(=O)N[C@H](C(=O)N[C@@H](CCC(=O)O)C(=O)N[C@H](C(=O)NCC(=O)N[C@@H](CO)C(=O)NCC(=O)N1CCC[C@H]1C(=O)N1CCC[C@H]1C(N)=O)[C@@H](C)O)[C@@H](C)O)[C@@H](C)O
B6: [N-terminal(C18 diacid-gGlu), des1, 9V, 30S, 31G]mimylin (peptide)
peptide: {C18 diacid-γGlu}-ASELSTAVLGRLSAELHELATLPRTETGSGSP-NH2
SMILES: CC(C)C[C@H](NC(=O)[C@H](CCC(=O)O)NC(=O)[C@H](Cc1c[nH]cn1)NC(=O)[C@H](CC(C)C)NC(=O)[C@H](CCC(=O)O)NC(=O)[C@H](C)NC(=O)[C@H](CO)NC(=O)[C@H](CC(C)C)NC(=O)[C@H](CCCNC(=N)N)NC(=O)CNC(=O)[C@H](CC(C)C)NC(=O)[C@@H](NC(=O)[C@H](C)NC(=O)[C@@H](NC(=O)[C@H](CO)NC(=O)[C@H](CC(C)C)NC(=O)[C@H](CCC(=O)O)NC(=O)[C@H](CO)NC(=O)[C@H](C)NC(=O)CC[C@H](NC(=O)CCCCCCCCCCCCCCCCC(=O)O)C(=O)O)[C@@H](C)O)C(C)C)C(=O)N[C@@H](C)C(=O)N[C@H](C(=O)N[C@@H](CC(C)C)C(=O)N1CCC[C@H]1C(=O)N[C@@H](CCCNC(=N)N)C(=O)N[C@H](C(=O)N[C@@H](CCC(=O)O)C(=O)N[C@H](C(=O)NCC(=O)N[C@@H](CO)C(=O)NCC(=O)N[C@@H](CO)C(=O)N1CCC[C@H]1C(N)=O)[C@@H](C)O)[C@@H](C)O)[C@@H](C)O

What follows are binders tested against T1, human amylin receptor (human calcitonin receptor + human RAMP3) (human) (assay: whole-cell competition vs 125I-rat amylin (Assay Va)).
With B1 the IC50 was 4.36 nM.
B2 gave an IC50 of 1.89 nM.
In the case of B3, the IC50 is reported as 0.608 nM.
For B4, the IC50 was 0.606 nM.
Binder B5 has an IC50 of 22 nM.
For B6, the IC50 was 0.764 nM.
